Test results as given in US20130203080A1 (UNIVERSITE MONTPELLIER 2, published 2013).

Assays:
[1] = target: T1, PiT1 phosphate transporter on murine cells (CD4+ T cells; cerebellar cortex sections) (mouse, UniProt Q61609 1-681); test: flow cytometry, RBD on murine CD4+ T cells polarised to Th0, Th1, Th2, Th17 or iTreg, day 4
T1 construct: whole, on cells
T1 sequence: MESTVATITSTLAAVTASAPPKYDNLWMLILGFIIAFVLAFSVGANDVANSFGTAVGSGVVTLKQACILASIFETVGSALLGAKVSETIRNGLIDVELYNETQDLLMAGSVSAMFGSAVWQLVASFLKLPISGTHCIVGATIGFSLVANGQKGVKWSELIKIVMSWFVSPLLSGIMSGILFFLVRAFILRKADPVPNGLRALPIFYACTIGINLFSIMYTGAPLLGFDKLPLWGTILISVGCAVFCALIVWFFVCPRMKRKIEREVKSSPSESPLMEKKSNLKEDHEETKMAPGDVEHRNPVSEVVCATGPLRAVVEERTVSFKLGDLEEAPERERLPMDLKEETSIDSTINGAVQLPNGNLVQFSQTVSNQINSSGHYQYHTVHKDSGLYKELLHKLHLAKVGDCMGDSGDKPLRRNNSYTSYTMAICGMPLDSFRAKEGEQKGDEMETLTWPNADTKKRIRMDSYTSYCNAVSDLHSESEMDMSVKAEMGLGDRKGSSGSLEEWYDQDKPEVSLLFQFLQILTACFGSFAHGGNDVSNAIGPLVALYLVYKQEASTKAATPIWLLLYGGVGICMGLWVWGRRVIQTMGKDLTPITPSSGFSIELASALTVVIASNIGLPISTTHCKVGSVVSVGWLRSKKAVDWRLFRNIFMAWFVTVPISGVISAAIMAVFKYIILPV

[2] = target: T2, PiT1 phosphate transporter on human cells (T cells, CD34 progenitor cells) (human, UniProt Q8WUM9 1-679); test: flow cytometry, tagged RBD on unstimulated and TCR-stimulated human T cells
T2 construct: whole, on cells; also called GaLV Env receptor
T2 sequence: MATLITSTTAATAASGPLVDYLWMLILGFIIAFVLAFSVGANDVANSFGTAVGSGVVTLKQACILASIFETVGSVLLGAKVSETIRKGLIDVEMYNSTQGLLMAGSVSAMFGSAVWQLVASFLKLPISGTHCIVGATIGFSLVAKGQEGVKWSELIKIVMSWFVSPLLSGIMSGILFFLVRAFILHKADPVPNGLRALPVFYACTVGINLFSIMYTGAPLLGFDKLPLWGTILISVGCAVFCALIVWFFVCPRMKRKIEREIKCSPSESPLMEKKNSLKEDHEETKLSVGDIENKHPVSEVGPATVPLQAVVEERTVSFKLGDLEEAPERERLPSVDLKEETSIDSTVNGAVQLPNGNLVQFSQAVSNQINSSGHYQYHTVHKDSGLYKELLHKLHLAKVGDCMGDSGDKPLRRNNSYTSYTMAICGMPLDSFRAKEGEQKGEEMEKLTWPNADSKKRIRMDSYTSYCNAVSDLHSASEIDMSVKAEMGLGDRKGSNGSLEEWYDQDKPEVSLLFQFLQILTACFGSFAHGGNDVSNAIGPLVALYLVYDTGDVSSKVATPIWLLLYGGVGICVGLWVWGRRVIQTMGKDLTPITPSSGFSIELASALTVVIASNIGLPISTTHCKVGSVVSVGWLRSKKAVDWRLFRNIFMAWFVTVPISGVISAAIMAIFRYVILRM

[3] = target: T1, PiT1 phosphate transporter on murine …; test: fluorescence staining of mouse cerebellum cryosections with RBD-rFc, biotinylated anti-rabbit IgG, Streptavidin-Alexa488
[4] = target: T3, glucose transporter Glut1 on human cells (B cells, B-CLL cells, red blood cells, T cells) (human, UniProt P11166 1-492); test: flow cytometry, GFP-tagged RBD on human red blood cells
T3 construct: whole, on cells; Endogenous receptor on primary human cells; the species follows from the cells; also called HTLV Env receptor
T3 sequence: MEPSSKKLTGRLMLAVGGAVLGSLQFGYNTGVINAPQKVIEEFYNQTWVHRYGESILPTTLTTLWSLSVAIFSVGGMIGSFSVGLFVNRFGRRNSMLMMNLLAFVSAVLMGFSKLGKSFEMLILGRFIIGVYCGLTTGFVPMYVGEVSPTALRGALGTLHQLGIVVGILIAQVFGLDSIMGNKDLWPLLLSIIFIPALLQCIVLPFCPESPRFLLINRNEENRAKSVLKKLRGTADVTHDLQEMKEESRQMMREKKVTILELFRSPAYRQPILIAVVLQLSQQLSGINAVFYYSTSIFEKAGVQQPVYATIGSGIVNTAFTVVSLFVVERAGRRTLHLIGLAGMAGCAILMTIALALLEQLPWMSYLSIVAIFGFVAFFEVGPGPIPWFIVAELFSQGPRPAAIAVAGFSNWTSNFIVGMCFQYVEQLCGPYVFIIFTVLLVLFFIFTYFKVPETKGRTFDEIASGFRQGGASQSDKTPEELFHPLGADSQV

B1: Gibbon Ape Leukemia virus (GALV) Env receptor binding domain, tagged soluble receptor binding ligand (ligand)
chain: TSLQNKNPHQPMTLTWQVLSQTGDVVWDTKAVQPPWTWWPTLKPDVCALAASLESWDIPGTDVSSSKRVRPPDSDYTAAYKQITWGAIGCSYPRARTRMASSTFYVCPRDGRTLSEARRCGGLESLYCKEWDCETTGTGYWLSKSSKDLITVKWDQNSEWTQKFQQCHQTGWCNPLKIDFTDKGKLSKDWITGKTWGLRFYVSGHPGVQFTIRLKITNMPAVAVGPDLVLVEQGPPRTSLALPPPLPPREAPPPSLPDSNSTALATSAQTPTVRKTIVTLNTPPPTTGDRLFDLVQGAFLTLNATNPGATESCWLC
notes: also called GaLV RBD; not shown: tag not specified
- binding result [1]: binds
- binding result [2]: binds

B2: Gibbon ape Leukemia Virus-RBD soluble RBD-rFc fusion protein (Fc fusion)
chain: TSLQNKNPHQPMTLTWQVLSQTGDVVWDTKAVQPPWTWWPTLKPDVCALAASLESWDIPGTDVSSSKRVRPPDSDYTAAYKQITWGAIGCSYPRARTRMASSTFYVCPRDGRTLSEARRCGGLESLYCKEWDCETTGTGYWLSKSSKDLITVKWDQNSEWTQKFQQCHQTGWCNPLKIDFTDKGKLSKDWITGKTWGLRFYVSGHPGVQFTIRLKITNMPAVAVGPDLVLVEQGPPRTSLALPPPLPPREAPPPSLPDSNSTALATSAQTPTVRKTIVTLNTPPPTTGDRLFDLVQGAFLTLNATNPGATESCWLC
notes: also called GRBD; not shown: rabbit IgG Fc (rFc)
- binding result [3]: binds

B3: HTLV2 (SEQ ID NO: 28) tagged with a green fluorescent protein (GFP) (ligand)
chain: QQSRCTLTVGISSYHSSPCSPTQPVCTWNLDLNSLTTDQRLHPPCPNLITYSGFHKTYSLYLFPHWIKKPNRQGLGYYSPSYNDPCSLQCPYLGCQSWTCPYTGPVSSPSWKFHSDVNFTQEVSQVSLRLHFSKCGSSMTLLVDAPGYDPLWFITSEPTQPPPTSPPLVHDSDLEHVLTPSTSWTTKILKFIQLTLQSTNYSCMVC
notes: also called HRBD-EGFP; non antibody Glut1-ligand; not shown: green fluorescent protein tag (GFP / EGFP)
- binding result [4]: binds
